Test results reported in patent publication US20090022663A1 (published 2009).

Columns and labels:
[1] = target: T1, 161P2F10B variant 1 (human 161P2F10B), on the cell surface (human, UniProt O14638 1-875); assay: flow cytometry on cells or ELISA on immobilized 161P2F10B
T1 construct: Cell surface pyrophosphatase/phosphodiesterase; also called 161P2F10B v.1; CD203c

[2] = target: T2, purified recombinant 161P2F10B extracellular domain (Tag5-161P2F10B ECD, amino acids 46-875) (human, UniProt O14638 46-875); assay: SPR (BIAcore), MAb captured on chip, recombinant 161P2F10B injected, 1:1 fit;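 also: purified human MAbs immobilised by capture on a CM5 chip surface, about 150 RU of antibody per cycle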
T2 construct: also called full length ECD
Text: Briefly, each purified human MAb is captured onto a CM5 sensor chip surface. On average approximately 150 RUs of each MAb is captured in every cycle.

[3] = target: T1, 161P2F10B variant 1 (human 161P2F10B), …; assay: FACS titration on KU-812 cells, one site binding fit
Experimental: At the end of the incubation, cells were washed and incubated with anti-hIgG-PE detection antibody for 45 min at 4° C. After washing the unbound detection antibodies, the cells were analyzed by FACS. MFI values of each point were obtained using CellQuest Pro software and were used for the affinity calculation using Graphpad Prism software and the one site binding (hyperbola) equation.

Row | Binder | binding result [1] | Kd [2] | koff [2] | kon [2] | Kd [3]
1 | H16-1.61.1 (antibody, V domains shown) VH: EVQLVESGGGVVQPGRSLRLSCAASGFTFSSYGMHWVRQAPGKGLEWVAVIWYDGSNKYYADSVKGRFTISRDNSKNTLYLQMNSLRAEDTAVYYCARSRITIFGVVHYGMDVWGQGTTVTVSS VL: DTQLTQSPSSLSASVGDRVTITCRASQSISSYLNWYQLKPGKAPKLLIYAASSLESGVPSRFSGSESGTDFTLTISSLQPEDFATYYCQQSYNSPITFGPGTKVDIKR | binds | – | – | – | –
2 | Ha16-1(1)11 (antibody, V domains shown, also called ATCC PTA-7450) VH: GPGLVKPSETLSLTCTVSGGSISSYYWSWIRQPPGKGLEWIGYIYYSGSTNYNPSLKSRVTISVDTSKNQFSLKLSSVTAADTAVYYCARAVSYYYYGMDVWGQGTTVTVSS VL: DIQMTQSPSSLSASVGDRVTITCRTIQNINSYLNWYQQRPGKAPKLLIYATSSLQSGVPSRFSGSGSGTDFTLTISSLQPEDFATYYCQQTYSTLFTFGPGTKVDIKR | – | 21.7 nM | 0.00143 s⁻¹ | 65800 M⁻¹ s⁻¹ | 0.004 nM
3 | H16-7.8 (antibody, V domains shown, Entries hold the leader and a portion of the constant region) VH: QVQLQESGPGLVKPSQTLSLTCTVSGGSISSGGYYWSWIRQHPGKGLEWIGIIYYSGSTYYNPSLKSRVTISVDTSKNQFSLKLNSVTAADTAVFYCARVAIVTTIPGGMDVWGQGTTVTVSS VL: EIVLTQSPDFQSVTPKEKVTITCRASQSIGISLHWYQQKPDQSPKLLIKYASQSFSGVPSRFSGSGSGTDFTLTINSLEAEDAATYYCHQSRSFPWTFGQGTKVEIKR | – | 18 nM | 0.00063 s⁻¹ | 35000 M⁻¹ s⁻¹ | 0.07 nM
4 | H16-9.10 (antibody, V domains shown, also called Ha16-9.10) VH: LLESGPGLVKPSQTLSLTCAISGDSVSSNSAAWNWIRQSPSRGLEWLGRTYYRSKWYNAYAVSVKSRMTINPDTSKNQFSLQLNSVTPEDTAVYYCAREAGGWFDPWGQGTLVTVSS VL: DIQMTQSPSSVSASVGDRVTITCRASQGIRSWLAWYQQKPGKAPKLLIYAASSLQSGVPSRFSGSGSGTDFTLTISSLQPEDFATYYCQQANSFPPTFGGGTKVEIKR | – | 7.4 nM | 0.000442 s⁻¹ | 59500 M⁻¹ s⁻¹ | 0.5 nM
5 | Ha16-1(3,5)18 (antibody, IgG1, V domains shown, The limits of VH (1-114) and VL (1-108) are stated in CLM-00001; the entries also hold a portion of the constant region; also called Ha16-1(3, 5)18.1; ATCC PTA-7452) VH: GPGLVKPSETLSLTCTVPGGSIRSYFWSWIRQPAGKGLEWIGRFYFSGSTNYNPSLKSRVTMSVDTSKNQFSLKLSSVTAADTAVYYCARDYGDHYYYYGMDVWGQGTTVTVSS VL: VLTQPPSVSAAPGQKVTISCSGSSSNIGNNYVSWYQQFPGTAPKFLIYDNNKRSSGIPDRFSGSKSGTSATLGITGLQTGDEADYYCGTWDSSLSAVIFGGGTKLTVL | – | 28 nM | 0.00062 s⁻¹ | 22000 M⁻¹ s⁻¹ | 0.047 nM
6 | H16-9.69 (antibody, V domains shown) VH: WGLSEVSCKASGYTFTSYDIHWVRQATGQGLEWMGWMNPNSGNTVYAQKFQGRVTMTRNTSISTAYMELSSLRSEDTAVYYCARTVLLWPFDYWGQGTLVTVSS VL: not shown | – | 4 nM | 0.000186 s⁻¹ | 42400 M⁻¹ s⁻¹ | 0.27 nM
7 | H16-9.44 (antibody, V domains shown, also called Ha16-9.44) VH: LSLTCTVSGGSISSYYWSWIRQSAGKGLEWIGRIYTGVSTNYNPSLKSRVTMSVDTSKNQFSLKLSSVTAADTAVYYCARDYYDSSGYYPFDYWGQGTLVTVSS VL: DIQMTQSPSSLSASVGDRVTISCRASQGISNYLAWFQQKPGKAPKSLIYAASSLENGVPSKFSGSGSGTDFTLTISSLQPEDFATYYCQQYNSSPFTFGPGTKVDIRR | – | 0.76 nM | 0.000132 s⁻¹ | 174000 M⁻¹ s⁻¹ | 1.27 nM
8 | Ha16-1(1)23 (antibody, V domains shown) VH: VESGGGVVQPGRSLRLSCAASGFTFRSYGMHWVRQAPGKGLEWVAVIWSDGSNKYYADSVKGRFTISRDNSKNTLYLQMNSLRAEDTAVYYCAREGYYGSGSYYYYYGMDVWGQGTTVTVSS VL: QAGLTQPPSVSKGLRQTATLTCTGNSNNVGTQGAAWLQQHQGHPPKLLSYRNNNRPSGISERLSASTSGNTASLTITGLQPEDEADYYCSAWDSSLSAVVFGGGTKLTVLG | – | 24 nM | 0.00088 s⁻¹ | 36000 M⁻¹ s⁻¹ | –
9 | Ha16-1(3,5)36 (antibody, V domains shown) VH: EVQLVESGPGLVKPSETLSLTCTVSGGSISSSSYYWGWIRQPPGKGLEWIGSMYYSGSTYHNPSLKSRVIISVDTSKNQFSLKLSSVTAADTAVYYCARHYITVAGIFDYWGQGTLVTVSS VL: not shown | – | 8.7 nM | 0.00046 s⁻¹ | 52900 M⁻¹ s⁻¹ | –
10 | H16-1.67 (antibody, V domains shown) VH: VESGPGLVKPSQTLSLTCTVSGGSINSFGYYWSWIRQYPGKGLEWIGFLYFTGSTYYNPSLKSRVTISVDTSKSQFSLKLSSVTAADTAVYYCARAGTMVRGAHYYGMDVWGQGTTVTVSS VL: not shown | – | 43 nM | 0.0007 s⁻¹ | 16000 M⁻¹ s⁻¹ | 0.02 nM
11 | H16-7.213 (antibody, V domains shown) VH: WGLSEVSCKASGYTFTGYYMHWVRQAPGQGLEWMGWINPNSGGTNYAQKFQGRVTMTRDTSISTAYMELSRLRSDDTAVYYCARELRYFGWLLSSLDYWGQGTLVTVSS VL: DIQMTQSPSSLSASVGDRVTITCRASQSISSYLNWFQQKPGKAPKLLIYAASSLQSGVPSRFSGSESGTDFTLTISSLQPEDFATYSCQQSYSFPLTFGGGTKVEIKR | – | 3.9 nM | 0.000509 s⁻¹ | 129000 M⁻¹ s⁻¹ | –
12 | H16-9.33 (antibody, V domains shown) VH: EVQLLESGPGLVKPSQTLSLTCAISGDSVSSNSAAWNWIRQSPSRGLEWLGRTYYRSKYYNAYPVSVKSRITINPDTSKNQFSLQLNSVTPEDTAVYYCAREAGGWFDPWGQGTLVTVSS VL: DIQMTQSPSSVSASVGDRVTITCRANQGIRSWLAWYQQKPGKAPKLLIYAASSLQSGVPSRFSGSGSGTDFTLTISSLQPEDFATYYCQQANSFPPTFGGGTKVEIKR | – | 3.9 nM | 0.000257 s⁻¹ | 66300 M⁻¹ s⁻¹ | –
13 | Ha16-1(3,5)27.1 (antibody, V domains shown, VH entry holds part of the leader; both hold a portion of the constant region) VH: LVESGAEVKKPGESLKISCKGSGYRFTSYWIGWVRQMPGKGLEWMGIIYPGDSDTRYSPSFQGQVTISADKSISTAYLQWSSLKASDTAMYYCARKDYYYYSMDVWGQGTTVTVSS VL: GQSALTQPASVSGSPGQSITISCTGTSSDVGGYNYVSWYQQHPGQAPKLLIYGVNIRPSGVSTRFSGSKSGNTASLTISGLQAEDEADYYCSSYTRSSILVVFAGGTKLTVLG | – | 4.8 nM | 0.000177 s⁻¹ | 36900 M⁻¹ s⁻¹ | 0.014 nM
14 | Ha16-1(3,5)56 (antibody, V domains shown) VH: RCRLVESGAEVKKPGESLKISCKGSGYRFTSYWIGWVRQMPGKGLEWMGIIYPGDSDTRYSPSFQGQVTISADKSISTAYLQWRSLKASDTAMYYCARKDYYYYVMDVWGQGTTVTVSS VL: DTISCTGTSSDVGNYNYVSWYQQHPGKAPKLMIYAVNNRPSGVSNRFSGSKSGNTASLTISGLQAEDEADYYCSSYTSSRNLVVFGGGTKLTVLG | – | 14.5 nM | 0.000593 s⁻¹ | 40800 M⁻¹ s⁻¹ | 0.019 nM
15 | H16-1.68 (antibody, V domains shown) VH: EVHLVESGGGVVQPGRSLRLSCAASGFTFRSYGMHWVRQAPGKGLEWVAVIWYDGSNKYYADSVKGRFTISRDNSKNTLYLQMNSLRAEDMAMYYCARSRITIFGVVHYGMDVWGQGTTVTVSS VL: TQLTQSPSSLSASVGDRVTITCRASQNINSYLNWYQQKPGKAPKLLIYAASSLQSGVPSRFSGSGSGTDFTLTISSLQPEDFTTYYCQQSYSSAPTFGGGTKLEIKR | – | 2.3 nM | 0.000244 s⁻¹ | 106000 M⁻¹ s⁻¹ | –
16 | H16-1.93 (antibody, V domains shown, Entries hold the leader (or part of it) and a portion of the constant region; also called ATCC PTA-7449) VH: QVQLVQSGAEVKKPGASVKVSCKASGYTFTSYGISWVRQAPGQGLEWMGWISAYNGNTYYAQKLQARVTMTTDTSTSTAYMELRSLRSDDTAVYYCARDGYSSSWSLLHYYGMDVWGQGTTVTVSS VL: DIQMTQSPSSLSASVGDRITITWRSSQGIYNSLAWYQQKPGKVPKLLIYAASTLHSGVPSRFSGSGSGTDFTLTISSLQPEDVATYYCQKYNSAPFTFGPGTKVDIKR | – | – | – | – | 0.09 nM
17 | H16-1(3,5)5 (antibody, V domains shown, Entries hold the leader (or part of it) and a portion of the constant region; also called Ha16-1(3,5)5) VH: EVQLVQSGAEVKKPGESLKISCKGSGYRFTSYWIGWVRQMPGKGLEWMGIIYPGDSDTRYSPSFQGQVTISADKSISTAYLQWSSLKASDTAMYYCARKDYYYYTMDVWGQGTTVTVSS VL: QSALTQPASVSGSPGQSITISCTGTSSDVGGYNYVSWYQQHPGKAPKLMIYAVSNRPSGVSNRFSGSKSGNTASLTISGLQAEDEADYYCSSYTISRILVVFGGGTKLTVLG | – | 7.2 nM | 4.76e-05 s⁻¹ | 6600 M⁻¹ s⁻¹ | –
18 | Ha16-1(3,5)42 (antibody, V domains shown, Entries hold the leader (or part of it) and a portion of the constant region) VH: EVQLVQSGAEVKKPGESLKISCKGSGYRFTSYWIGWVRQMPGKGLEWMGIIYPGDSDTRYSPSFQGQVTISADKSISTAYLQWSSLKASDTAMYYCARKDYYYYSMDVWGQGTTVTVSS VL: QSALTQPASVSGSPGQSITISCTGTSSDVGRFNYVSWYQQRPGKAPKLMIYAVNIRPSGVSNRFSGSKSGNTASLTISGLQAEDEAGYYCSSYTSSSTLLVFGGGTKLTVLG | – | 4.3 nM | 0.000205 s⁻¹ | 47600 M⁻¹ s⁻¹ | –
19 | H16-9.65 (antibody, V domains shown, Fully human XenoMouse MAb; Entries hold the leader (or part of it) and a portion of the constant region) VH: QVQLVESGGGVVQPGRSLRLSCAASGFTFSSYGMHWVRQAPGKGLEWVATIWFDGSNGYYADSVKGRFTISRDNSKNTLYLQMNSLRAEDTAVYYCARDSSGSYDHFDYWGQGTLVTVSS VL: not shown | – | 5 nM | 0.000464 s⁻¹ | 93700 M⁻¹ s⁻¹ | –
20 | Ha16-1(3,5)19 (antibody, V domains shown, Entries hold part of the leader and a portion of the constant region) VH: EVQLVQSGAEVKKPGESLKISCKGSGYRFTSYWIGWVRQMPGKGLEWMGIIYPGDSDTRYSPSFQGQVTISADKSISTAYLQWSSLKASDTAMYYCARKDYYYYAMDVWGQGTTVTVSS VL: QSALTQPASVSGSPGQSITISCTGTSSDVGRYNYVSWYQQHPGQAPKLMIYGISIRPSGVSPRFSGSKSGNTASLTISGLQAEDEADYYCSSHTSNSTLVVFAGGTKLTVLG | – | 1.68 nM | 8.4e-05 s⁻¹ | 50000 M⁻¹ s⁻¹ | –
